The record followed here is patent US20020022239A1, “PHYTOFLUORS AS FLUORESCENT LABELS” (priority 1999, published 2002).

B1: Cph2-N197: Strep-Tagged N-terminal 197 amino acid region of Cph2 (SEQ ID NO: 9), module 1 only (protein)
chain: KLAVRAISRLQSLPGGDIGALCDTVVEDVQRLTGYDRVMVYQFHEDDHGEVVSEIRRSDLEPYLGLHYPATDIPQAARFLFKQNRVRMICDCNATPVKVVQSEELKRPLCLVNSTLRAPHGCHTQYMANMGSVASLALAIVVKGKDSSKLWGLVVGHHCSPRYVPFPLRYACEFLMQAFGLQLQMELQLASQLAEK
modifications: Strep-Tag
B2: cph2a (N390): first 390 amino acid residues of Cph2 (SLL0821), N-terminal phytochrome-related domain (protein, UniProt Q55434 1-390, looked up, fragment)
chain: MNPNRSLEDFLRNVINKFHRALTLRETLQVIVEEARIFLGVDRVKIYKFASDGSGEVLAEAVNRAALPSLLGLHFPVEDIPPQAREELGNQRKMIAVDVAHRRKKSHELSGRISPTEHSNGHYTTVDSCHIQYLLAMGVLSSLTVPVMQDQQLWGIMAVHHSKPRRFTEQEWETMALLSKEVSLAITQSQLSRQVHQQQVQEALVQRLETTVAQYGDRPETWQYALETVGQAVEADGAVLYIAPDLTGSVAQHYQWNLRFDWGNWLETSLWQELMRGQPSAAMEPMAAVQSTWEKPRPFTSVAPLPPTNCVPHGYTLGELEQRSDWIAPPESLSAENFQSFLIVPLAADQQWVGSLILLRKEKSLVKHWAGKRGIDRRNILPRLSFEAWE
B3: Cph1 (N514) R222G: site-directed single mutant R222G of Cph1 (N514) (protein, UniProt Q55168 1-514, looked up, variant R222G)
chain: MATTVQLSDQSLRQLETLAIHTAHLIQPHGLVVVLQEPDLTISQISANCTGILGRSPEDLLGRTLGEVFDSFQIDPIQSRLTAGQISSLNPSKLWARVMGDDFVIFDGVFHRNSDGLLVCELEPAYTSDNLPFLGFYHMANAALNRLRQQANLRDFYDVIVEEVRRMTGFDRVMLYRFDENNHGDVIAEDKRDDMEPYLGLHYPESDIPQPARRLFIHNPIGVIPDVYGVAVPLTPAVNPSTNRAVDLTESILRSAYHCHLTYLKNMGVGASLTISLIKDGHLWGLIACHHQTPKVIPFELRKACEFFGRVVFSNISAQEDTETFDYRVQLAEHEAVLLDKMTTAADFVEGLTNHPDRLLGLTGSQGAAICFGEKLILVGETPDEKAVQYLLQWLENREVQDVFFTSSLSQIYPDAVNFKSVASGLLAIPIARHNFLLWFRPEVLQTVNWGGDPNHAYEATQEDGKIELHPRQSFDLWKEIVRLQSLPWQSVEIQSALALKKAIVNLILRQAEE
modifications: N514 fragment
B4: Cph1 (N514) Wild Type: N514 deletion mutant of Synechocystis sp. PCC 6803 apophytochrome Cph1, wild-type sequence (protein, UniProt Q55168 1-514, looked up, fragment)
chain: MATTVQLSDQSLRQLETLAIHTAHLIQPHGLVVVLQEPDLTISQISANCTGILGRSPEDLLGRTLGEVFDSFQIDPIQSRLTAGQISSLNPSKLWARVMGDDFVIFDGVFHRNSDGLLVCELEPAYTSDNLPFLGFYHMANAALNRLRQQANLRDFYDVIVEEVRRMTGFDRVMLYRFDENNHGDVIAEDKRDDMEPYLGLHYPESDIPQPARRLFIHNPIRVIPDVYGVAVPLTPAVNPSTNRAVDLTESILRSAYHCHLTYLKNMGVGASLTISLIKDGHLWGLIACHHQTPKVIPFELRKACEFFGRVVFSNISAQEDTETFDYRVQLAEHEAVLLDKMTTAADFVEGLTNHPDRLLGLTGSQGAAICFGEKLILVGETPDEKAVQYLLQWLENREVQDVFFTSSLSQIYPDAVNFKSVASGLLAIPIARHNFLLWFRPEVLQTVNWGGDPNHAYEATQEDGKIELHPRQSFDLWKEIVRLQSLPWQSVEIQSALALKKAIVNLILRQAEE
B5: Cph1 (N514) D171A: site-directed single mutant D171A of Cph1 (N514) (protein, UniProt Q55168 1-514, looked up, variant D171A)
chain: MATTVQLSDQSLRQLETLAIHTAHLIQPHGLVVVLQEPDLTISQISANCTGILGRSPEDLLGRTLGEVFDSFQIDPIQSRLTAGQISSLNPSKLWARVMGDDFVIFDGVFHRNSDGLLVCELEPAYTSDNLPFLGFYHMANAALNRLRQQANLRDFYDVIVEEVRRMTGFARVMLYRFDENNHGDVIAEDKRDDMEPYLGLHYPESDIPQPARRLFIHNPIRVIPDVYGVAVPLTPAVNPSTNRAVDLTESILRSAYHCHLTYLKNMGVGASLTISLIKDGHLWGLIACHHQTPKVIPFELRKACEFFGRVVFSNISAQEDTETFDYRVQLAEHEAVLLDKMTTAADFVEGLTNHPDRLLGLTGSQGAAICFGEKLILVGETPDEKAVQYLLQWLENREVQDVFFTSSLSQIYPDAVNFKSVASGLLAIPIARHNFLLWFRPEVLQTVNWGGDPNHAYEATQEDGKIELHPRQSFDLWKEIVRLQSLPWQSVEIQSALALKKAIVNLILRQAEE
modifications: N514 fragment
B6: Cph1 (N514) DR171/2AG: double mutant D171A/R172G of Cph1 (N514) (protein, UniProt Q55168 1-514, looked up, variant D171A R172G)
chain: MATTVQLSDQSLRQLETLAIHTAHLIQPHGLVVVLQEPDLTISQISANCTGILGRSPEDLLGRTLGEVFDSFQIDPIQSRLTAGQISSLNPSKLWARVMGDDFVIFDGVFHRNSDGLLVCELEPAYTSDNLPFLGFYHMANAALNRLRQQANLRDFYDVIVEEVRRMTGFAGVMLYRFDENNHGDVIAEDKRDDMEPYLGLHYPESDIPQPARRLFIHNPIRVIPDVYGVAVPLTPAVNPSTNRAVDLTESILRSAYHCHLTYLKNMGVGASLTISLIKDGHLWGLIACHHQTPKVIPFELRKACEFFGRVVFSNISAQEDTETFDYRVQLAEHEAVLLDKMTTAADFVEGLTNHPDRLLGLTGSQGAAICFGEKLILVGETPDEKAVQYLLQWLENREVQDVFFTSSLSQIYPDAVNFKSVASGLLAIPIARHNFLLWFRPEVLQTVNWGGDPNHAYEATQEDGKIELHPRQSFDLWKEIVRLQSLPWQSVEIQSALALKKAIVNLILRQAEE
modifications: N514 fragment
B7: Cph1 (N514) DR171/2AA: double mutant D171A/R172A of Cph1 (N514) (protein, UniProt Q55168 1-514, looked up, variant D171A R172A)
chain: MATTVQLSDQSLRQLETLAIHTAHLIQPHGLVVVLQEPDLTISQISANCTGILGRSPEDLLGRTLGEVFDSFQIDPIQSRLTAGQISSLNPSKLWARVMGDDFVIFDGVFHRNSDGLLVCELEPAYTSDNLPFLGFYHMANAALNRLRQQANLRDFYDVIVEEVRRMTGFAAVMLYRFDENNHGDVIAEDKRDDMEPYLGLHYPESDIPQPARRLFIHNPIRVIPDVYGVAVPLTPAVNPSTNRAVDLTESILRSAYHCHLTYLKNMGVGASLTISLIKDGHLWGLIACHHQTPKVIPFELRKACEFFGRVVFSNISAQEDTETFDYRVQLAEHEAVLLDKMTTAADFVEGLTNHPDRLLGLTGSQGAAICFGEKLILVGETPDEKAVQYLLQWLENREVQDVFFTSSLSQIYPDAVNFKSVASGLLAIPIARHNFLLWFRPEVLQTVNWGGDPNHAYEATQEDGKIELHPRQSFDLWKEIVRLQSLPWQSVEIQSALALKKAIVNLILRQAEE
modifications: N514 fragment

A short description of one experiment: Covalent bilin (PCB) binding of recombinant apophytochrome polypeptides upon incubation with PCB (zinc blot). The note with it: incubation with PCB. From the text: This work thus confirms that the structural motif illustrated in FIG. 2 represents the bilin-binding domain of the ‘phytochrome superfamily’ from which new phytofluors of different colors can be devised.
Based on the multiple sequence alignment shown in FIG. 2, and using methods described in W098/04700, a bacterial expression vector express a Strep-Tagged version of N-terminal 197 amino acid region of Cph2 (Cph2-N197) that encompassed ‘module 1’ only was constructed (see, FIG. 3).
To address the importance of conserved residues in the bilin lyase domain of Cph1 to bilin attachment and spectral properties of its bilin adducts, site-directed mutagenesis of some of these residues were undertaken. Charged residues D171, R172, E189 and R222 of Cph1 (N514) were mutagenized in the initial studies.
Turning to B1, the “covalent binding of PCB” value is “yielded a covalent biliprotein adduct”.

Regarding B2, the “covalent binding of PCB” value was “covalently bind PCB”.

The same experiment, now with this note: site-directed mutants of Cph1 (N514).
For B3, the “PCB Binding” value was “yes”.

As for B4, the “PCB Binding” value is “yes”.

For the molecule B5, the “PCB Binding” value is recorded as “yes”.

With B6, the “PCB Binding” value was “no”.

In the case of B7, the “PCB Binding” value is recorded as “no”.
